From US20140212458A1

Molecular target: BG505.T332N Env on Env-pseudotyped virus (HIV-1 BG505 (clade A))

With CD4-IgG2 (Fc fusion) the IC50, neutralization of BG505.T332N pseudovirus, TZM-bl cells was 0.433 µg/mL.
